Test results taken from patent publication US20210364527A1.

Molecular target: polypeptide with a terminal leucine residue (rest of sequence not given)
Experiment: single-molecule dwell time analysis; panel Leu; filtered 0.00s<=dur<=20.00s and magnitude above baseline > 15.0

- mean pulse duration (dashed line of the distribution): 0.35 s
Substance: Synechococcus elongatus ClpS2
